What all share (assay): activation reporter or marker
The target of test [1] is T1, HELZ2 P775A peptide on HLA-DPA1*01:03 / HLA-DPB1*104:01 (human).
T1 peptide: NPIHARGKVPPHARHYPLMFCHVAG

Test [2] addresses T2, HELZ2 P775A peptide on HLA-DPA1*03:01 / HLA-DPB1*104:01 (human).
T2 peptide: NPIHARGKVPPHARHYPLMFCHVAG

Test [3] deals with T3, ARHGEF16 R150W peptide on HLA-DRA*01:01 / HLA-DRB1*11:01 (human).
T3 peptide: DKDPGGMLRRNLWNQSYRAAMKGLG

Test [4] concerns the target T4, ERGIC2 L176P peptide on HLA-A*03:01 (human).
T4 peptide: RIHGHPYVNK

B1: 6932-TCR5 (TCR, V domains shown)
Valpha: RKEVEQDPGPFNVPEGATVAFNCTYSNSASQSFFWYRQDCRKEPKLLMSVYSSGNEDGRFTAQLNRASQYISLLIRDSKLSDSATYLCVVKNQGGKLIFGQGTELSVKP
Vbeta: GVTQTPRYLIKTRGQQVTLSCSPISGHRSVSWYQQTPGQGLQFLFEYFSETQRNKGNFPGRFSGRQFSNSRSEMNVSTLELGDSALYLCASILGGGRGDTQYFGPGTRLTVL
B1: the binding result in test [1] and in test [2] was “recognises” throughout.

B2: 8434-TCR23 (TCR, V domains shown)
Valpha: QQQVKQSPQSLIVQKGGISIINCAYENTAFDYFPWYQQFPGKGPALLIAIRPDVSEKKEGRFTISFNKSAKQFSLHIMDSQPGDSATYFCAASRASGGSYIPTFGRGTSLIVHP
Vbeta: GITQSPKYLFRKEGQNVTLSCEQNLNHDAMYWYRQDPGQGLRLIYYSQIVNDFQKGDIAEGYSVSREKKESFPLTVTSAQKNPTAFYLCATKILAGANTGELFFGEGSRLTVL
Turning to B2, the binding result in test [3] was “recognises”.

B3: 8434-TCR20 (TCR, V domains shown)
Valpha: KQEVTQIPAALSVPEGENLVLNCSFTDSAIYNLQWFRQDPGKGLTSLLLIQSSQREQTSGRLNASLDKSSGRSTLYIAASQPGDSATYLCAVRHSGNTPLVFGKGTRLSVIA
Vbeta: AVVSQHPSRVICKSGTSVKIECRSLDFQATTMFWYRQFPKQSLMLMATSNEGSKATYEQGVEKDKFLINHASLTLSTLTVTSAHPEDSSFYICSASGGGRTEAFFGQGTRLTVV
Take B3: in test [3], the binding result is “recognises”.

B4: 2599-TCR12 (TCR, V domains shown)
Valpha: EDKVVQSPLSLVVHEGDTVTLNCSYEVTNFRSLLWYKQEKKAPTFLFMLTSSGIEKKSGRLSSILDKKELFSILNITATQTGDSAIYLCGGLNAGGTSYGKLTFGQGTILTVHP
Vbeta: EPEVTQTPSHQVTQMGQEVILRCVPISNHLYFYWYRQILGQKVEFLVSFYNNEISEKSEIFDDQFSVERPDGSNFTLKIRSTKLEDSAMYFCASLGASTYEQYFGPGTRLTVT
For the molecule B4, in test [4], the binding result was “recognises”.

B5: 8434-TCR21 (TCR, V domains shown)
Valpha: KQEVTQIPAALSVPEGENLVLNCSFTDSAIYNLQWFRQDPGKGLTSLLLIQSSQREQTSGRLNASLDKSSGRSTLYIAASQPGDSATYLCAVRRDGTASKLTFGTGTRLQVTL
Vbeta: AVVSQHPSWVICKSGTSVKIECRSLDFQATTMFWYRQFPKQSLMLMATSNEGSKATYEQGVEKDKFLINHASLTLSTLTVTSAHPEDSSFYICSASFPGRGNEQFFGPGTRLTVL
On to B5, for which the binding result in test [3] is reported as “recognises”.

Values taken from patent US20250216381A1 (published 2025).
